The values that follow come from US20190016815A1 (TRACON PHARMACEUTICALS, published 2019).

In general, IC50 refers to the concentration that inhibits the measured activity by half.

For assay [1], the target named is T1, human CD105 (R&D Systems Cat. No. 1097-EN) (human, UniProt P17813 26-586).
T1 construct: Bought protein, captured on the plate by mouse anti-human CD105 (Southern Biotechnologies 9811-01); also called human endoglin
T1 sequence (looked up): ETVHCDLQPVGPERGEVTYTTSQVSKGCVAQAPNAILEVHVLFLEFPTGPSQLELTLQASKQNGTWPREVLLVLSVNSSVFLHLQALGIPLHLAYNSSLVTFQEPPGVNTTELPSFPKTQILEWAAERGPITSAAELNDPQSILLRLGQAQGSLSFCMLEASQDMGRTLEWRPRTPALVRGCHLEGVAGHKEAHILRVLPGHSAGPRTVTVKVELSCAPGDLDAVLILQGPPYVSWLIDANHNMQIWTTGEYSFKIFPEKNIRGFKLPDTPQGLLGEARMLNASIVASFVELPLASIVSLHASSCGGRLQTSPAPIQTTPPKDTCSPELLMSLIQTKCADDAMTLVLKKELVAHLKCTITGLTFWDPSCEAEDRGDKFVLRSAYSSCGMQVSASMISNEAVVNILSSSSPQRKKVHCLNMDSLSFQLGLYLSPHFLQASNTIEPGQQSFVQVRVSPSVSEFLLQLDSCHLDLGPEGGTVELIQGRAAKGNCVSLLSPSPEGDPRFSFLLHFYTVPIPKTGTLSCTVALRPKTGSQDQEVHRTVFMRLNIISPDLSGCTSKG
Nature of the assay: competition ELISA on captured human CD105; unlabelled TRC205 against biotinylated TRC205 (55 ng/ml). As for the experimental part:
(§1) After washing three times with PBST, a three-fold dilution series of either human BMP9 (R&D Systems Cat. No. 3209-BP-010) (413 nM to 0.56 nM), or unlabelled TRC205 antibody (40 nM to 0.05 nM) or a single concentration of an irrelevant antibody (66 nM) was mixed with a fixed concentration of biotinylated TRC205 antibody (55 ng/ml) and added to the plate. Following incubation for 1 hour at room temperature, the plate was washed three times with PBST and binding of the biotinylated TRC205 antibody was detected using streptavidin-HRP (Sigma Cat. No. 55512) and TMB substrate (Sigma Cat. No. T0440). OD450 nm values were measured on a Dynex MRX TCII plate reader.

Assay [2] concerns the target T1, human CD105 (R&D Systems Cat. No. …). Nature of the assay: competition ELISA on human CD105 captured on the plate (100 ng/ml); competitor: biotinylated chimeric anti-CD105 at 6.25 ng/ml; streptavidin-HRP, TMB, OD450. As for the experimental part:
FIGS. 6A-6F. Anti-CD105 competition ELISA with humanized and humanized/deimmunized antibodies. […] Binding was detected via streptavidin-HRP and TMB substrate. Absorbance (OD) at 450 nm was measured on a plate reader and this was plotted against the test antibody concentration. FIG. 6A provides the results from the chimeric control compared to VK1VH1, VK1VH2, VK2VH1 and VK2VH2. FIG. 6B provides the results from the chimeric control compared to VK1VH1, VK2AVH1A, VK2SAVH1Q, VK2SAVH1R and VK2SAVH1S. FIG. 6C provides the results from the chimeric control compared to VK2AAVH1A2, VK2ASVH1A2, VK2ASVH1Q, VK2SSVH1A and VK2SSVH1Q. FIG. 6D provides the results from the chimeric control compared to VK2VH1, VK2AAVH1A, VK2AAVH1Q, VK2AAVH1R and VK2AAVH1S. FIG. 6E provides the results from the chimeric control compared to VK2VH1, VK2ASVH1A, VK2ASVH1R, VK2ASVH1S, and VK2SAVH1A2. FIG. 6F provides the results from the chimeric control compared to VK2VH1, VK2SSVH1Q, VK2SSVH1A2, VK2SSVH1R and VK2SSVH1S.
Antibodies were tested in a competition ELISA for binding to CD105 against biotinylated chimeric anti-CD105. Briefly, chimeric anti-CD105 was biotinylated using a micro-biotinylation kit (Sigma, Catalog No. BTAG-1KT) following the manufacturer's instructions. […] Binding of the biotinylated chimeric antibody was detected via streptavidin-HRP (Sigma, Catalog No. 55512) and TMB substrate (Sigma, Catalog No. T0440). OD450 nm values were measured on a Dynex MRX TCII plate reader. The results of the competition analysis are illustrated in FIG. 6.
Background: An ELISA detects its analyte on a solid surface through an enzyme-linked reagent.

Assay [3] shares this target. Nature of the assay: competition ELISA on captured human CD105; human BMP9 against biotinylated TRC205 (55 ng/ml). As for the experimental part:
as §1

B1: TRC205 antibody (antibody, IgG4, V domains shown)
VH: EVQLVESGGGLVKPGGSLRLSCAASGFTFSDAWMDWVRQAPGKGLEWVGEARSKASNHATYYAESVKGRFTISRDDSKNTLYLQMNSLKTEDTAVYYCTRWRRFFDSWGQGTLVTVSS
VL: DIQMTQSPSSLSASVGDRATITCRASSSVSYMHWYQQKPGKAPKPWAYATSNLASGVPSRFSGSGSGTDYTLTISSLQPEDFATYYCQQWSSNPLTFGGGTKVEIK
notes: IgG4); Biotinylated with a Lightning-Link kit for the direct ELISA and as the labelled tracer; also called biotinylated TRC205; unlabelled TRC205
For the molecule B1, the IC50 in assay [1] was determined as 0.26 µg/mL.

B2: VK2SSVH1R (antibody, V domains shown)
VH: EVQLVESGGGLVKPGGSLRLSCAASGFTFSDAWMDWVRQAPGKGLEWVGEIRSRASNHATYYAESVKGRFTISRDDSKNTLYLQMNSLKTEDTAVYYCTRWRRFFDSWGQGTLVTVSS
VL: DIQLTQSPSSLSASVGDRVTISCRASSSVSYMHWYQQKPGKAPKPWIYASSNLASGVPSRFSGSGSGTDYTLTISSLQPEDFATYYCQQWSSNPLTFGGGTKVEIK
B2: the binding result in assay [2] is listed as “binds”.

B3: VK2ASVH1A (antibody, V domains shown)
VH: EVQLVESGGGLVKPGGSLRLSCAASGFTFSDAWMDWVRQAPGKGLEWVAEIRSKASNHATYYAESVKGRFTISRDDSKNTLYLQMNSLKTEDTAVYYCTRWRRFFDSWGQGTLVTVSS
VL: DIQLTQSPSSLSASVGDRATITCRASSSVSYMHWYQQKPGKAPKPWIYASSNLASGVPSRFSGSGSGTDYTLTISSLQPEDFATYYCQQWSSNPLTFGGGTKVEIK
Consider B3, for which the binding result in assay [2] is “binds”.

B4: VK2ASVH1R (antibody, V domains shown)
VH: EVQLVESGGGLVKPGGSLRLSCAASGFTFSDAWMDWVRQAPGKGLEWVGEIRSRASNHATYYAESVKGRFTISRDDSKNTLYLQMNSLKTEDTAVYYCTRWRRFFDSWGQGTLVTVSS
VL: DIQLTQSPSSLSASVGDRATITCRASSSVSYMHWYQQKPGKAPKPWIYASSNLASGVPSRFSGSGSGTDYTLTISSLQPEDFATYYCQQWSSNPLTFGGGTKVEIK
As for B4, in assay [2], the binding result is “binds”.

B5: human BMP9 (R&D Systems Cat. No. 3209-BP-010) (ligand, UniProt Q9UK05 320-429, looked up)
chain: SAGAGSHCQKTSLRVNFEDIGWDSWIIAPKEYEAYECKGGCFFPLADDVTPTKHAIVQTLVHLKFPTKVGKACCVPTKLSPISVLYKDDMGVPTLKYHYEGMSVAECGCR
notes: Bought protein
Regarding B5, the IC50 in assay [3] was 0.35 µg/mL.
